This note sets out measurements from the DeepSol protein solubility set.

The series in a line: soluble on expression in E. coli; label from the status in PepcDB or PDB records.
As to “MREIVTIQVGEFANFVGSHFWNFQDELLGLASDPESDPIFRNHNLDMDVLYRSGETQQGVATYTPRLVSVNLKGALGTMSSRGTLYNEGSSSRSDSSATWFGDVDTQRSEPRKRNLFLQSLYEEEHVVGKEKAKEIEDKDIVGCLDEEVECWTDFSKSHYHPQSLYELNGLWMDSQAFNNYGIGKDVFSEASRGEEICDRLRFFVEECDHIQGIKFLVDDSGGFSAVAADFLENMADEYTNVPVLLYSVRTPMSQMSSKKTVSNKLHDAISFSRLSSFCKLFTPIGLPSLTGSKASKFLNLGDEKPYRSSAVYAAALHSSTIPFRMQPTSSDSSEVSNSMDVNTLVQLLTGRGRQNIVAILDSAMPAPTLAGKQLENTLLTSLQALTPEVTEDVEDNQAVESMCILGALRSEDKEALVSEVKNAVDASYEQATTKGKPLFCNLSVSRCPLPVPLPFPSIFGNLVGRKGEILSSPVSDSLYRGSLDVHSIPVATRWRSSSAILPFLETRMGNLEKLGIQWGAMGSDVVRAWGFGREELQEMRENLSKMVSELNPQFFESSDSD”, the “soluble on expression in E. coli” value is recorded as “soluble”.
With “MAHHHHHHMNSTLVHDLQQFRYVTAFTNPLPWPHVRRVSIPGLRHEAPDLPFMANLISALSDCDVSLHKIHEHNDTDILQLVQVLQACLQFSLWSQNILKEKLLEVQATHVAKGVSAQQLENLEKRYHALEGEMAALHKDRGMLSLGTANLRTSLAQMEKTIKRQERQLQQERGRNAQLVAKLEKALCARAVAAPLMSAPRLPPPRESQQRPAGNRHASAPTHRTTKATTVYDSSRLPTDNADAHRDSIASLTSDTSYGDSCLSAEVAARTHSHVPQPCDSLDPPPPPFLDWRTLVRYIIHEEQRASVWASNHASPTAARATADERGIASKEELMPAAQHPSKPAAALPAAATQRVTEAQLDSFFAGLTAGVTTEVVAYSRAVAARVEEMVRAATQQWIQETAEAQQALMAQVQAALGSLGAELAVHKQLKDATPSPALRTVAMPVATSDASDPHAQLAPFSPVLASSSVRNSAAAALPAPCQHAGNALVTLANAPPTNDSKPLSQPPQTSASPLTPSIDSSPPASFLNSFVMSGTALCHSTTGCEVLDGGSKTRTPLPDFSPDILRTPPTSEHGTAAAPLGTGSDGPRSVVSRADDADERDVDVDLLPLDSSSSDSSSGSSQRSDGTADGVAEVSHAYARVLAKPSSPPPMYPNKTPTAAAFVVQPAAPTHPSANRTLSLHFSTRSDVSEGSSYGSSQMLRETRAQLQALLEEEEAAGRAKTHR”, the “soluble on expression in E. coli” value was “not soluble”.
Take “MGSDKIHHHHHHCGGGTERKGLEALVAEYKKLNPDVDFEIIDISYSSYMQKISLAVMSGDVPDLMTITYPFAPELRKYLIDLDPYIEKYLGITPKEYEDAFYNVVKPYIKDENGKIKYVPLHFTVQGLWVNVDYFEKAGIPFPPLGGREEPWTWEEFVEVLRKVKEANNLPYAMSMQYSAERIANYLAIRGAKVLDENLNLVLDKDPKAIKALEDFVNLFKENLCVPAEWVSGQSADNDFYGGVTAVYWAGSWETLDALSVEGKRFLPAYLPKDEYCFGVEGGRFFGAFKTGDKKKEEEAAKFALWAGWKGKGYDIYLKTTLHLSAYKDHKVDYGVPIMESVQKVFGYLAANAPEWIVTVRANPVWSRLYDPLRKQISLVIAGQQDLQTALKNIRAEYERIVEELGIK”: the “soluble on expression in E. coli” value is “not soluble”.
Then “MSLALNPAVAPIKSIEFIPVNYQASNWSQNTVVVKVTDENGVYGLGEADGSPDAILAYANIETEHKWLTNITEKAIGRLPIEINAIWDAMYDATQWQGMRGLGMFALSGIDMALYDLAGKQLGVPAYQLLGGTNKDKVHPYLTLYPAIPVDASLDVAIKGYAPLLEKAKAHNIRAVKVCVPIKADWSTKEVAYYLRELRGILGHDTDMMVDYLYRFTDWYEVARLLNSIEDLELYFAEATLQHDDLSGHAKLVENTRSRICGAEMSTTRFEAEEWITKGKVHLLQSDYNRCGGLTELRRITEMATANNVQVMPHNWKTGITSAAAIHYQFAVGNAPYFEYVHPEFCDGELRKYLVTPEAELVDGGFAKPTAPGLGIDLNQEFLASLEGHHHHHH”, with “soluble”; and “MGSDKIHHHHHHKSISNKLVVFDDKEQVIQYSSNSIPVKIELYSKRWGKTSITYNNSLKEFWDIVESMPRSKNFYGSTKIENSPNDIIGTIFYLNGKRSTMCLNHNLKIDDSYYGGERGYAYINRLRNYINDIMCTPSMLASIVNDKNKVIIEDKLSEASKCGSNDKTLIKNEITKLRRISNNEKLQKTITSKGKLNYHIKIYMENSNGSNINLSKIKQDNYDIISISVYENNCAVIRDYGNDTVDTFCMEGNLTNVCKSILKR”, with “not soluble”.
As to “MYQKFKGGDLMIHGGDIYTEGVFKGRELLDYSSNINPLGIPKSFLNNIDEGIKNLGVYPDVNYRRLNKSIENYLKLKDIGIVLGNGASEIIELSISLFEKILIIVPSYAEYEINAKKHGVSVVFSYLDENMCIDYEDIISKIDDVDSVIIGNPNNPNGGLINKEKFIHVLKLAEEKKKTIIIDEAFIEFTGDPSSSFVGEIKNYSCLFIIRAMTKFFAMPGIRFGYGITNNKEIAAKIKAKQNPWNINCFAEMAAINCLKDTNYIEESLLWIKKERKRFIEELNKIGFIKRVFSPHANFVLCRLENISGEKLYDSLLKEDIVIRRCCNFIGLDDSFVRFAIKDEKKNTKFLRALKGVENNL”, the “soluble on expression in E. coli” value is on record as “soluble”.
The value for “MPEHTKVSAEDQALLNKFARSYQTQTQLKADVKEAKTLIDNINEASDEILLLDDEDSASIPCRIGSCFVHFNGDSLNEHLEGKKTTAEKVLSEKTSELDAISADMEQIKKVLYAKFGDQINLDAEE” was “soluble”; that for “MSEQVYSGVDQDEDGGLTPLGRIVIDAWVFGILPESEMCTGWSMSQMQNLYEEVYAAWGPYAHLPSRLPPELQQRHSFFYSQRITVAKNNGWDTDLSDES” was “not soluble”; that for “MAHHHHHHMTTVPESTCAASCESQLCLLCDTPYTSWTEHSREHAHVARSVVCRFFVMPERSESIMQHLERHIALDLKEVDALTDRKVGRRRERLLAGLVHLVEKGVLRDSIPTLPFSTPARGGTDKGRGAGISGVTLGVDADLFLNRVLVGEAFLRREVLDRCARLMPSLTAMELNSVVTYLTSTRQMARIFDELSLIELLVTRSGLESAPANVNTATAAATAAGRAAESASVEPLSETAAAPLPDSDASTESPPAHQPCSSTLAASLPSPPRWSLSREDKVYIMCACLGELHRFHEQERPRSVISKAAADAIVLNVLAGHGRENLVSELVHETLQRIVDEGTVVWRQHQEDVKRRGRSSEANVAGAARISARRAPRTDSTVSEDLCYVRTAPLPSAPSPRPASQVTLDSAAAEQLVSSYLPFNDVDQLSGAETDAVKATAEAPSRSSPDRTCTTSPECISVLHTSEKDWGPLTAELRKRAEDWNRLPFVPSTPELKASKMPR” was “not soluble”.
Then “MGSDKIHHHHHHMRVMAFVQARMGSTRLPGKSLMPVWNGMGVLEMTLRRALRARTLSGVVLCTSTDPACDALETLASGLGVQAFRGPEDDVLTRYALATERFEPDAVVRICADSPLVCPEGIDALVAFFRDEGLDYAAHAMDGTGLPDGLGCEVFTAAALAQAHAEATAPEDREHVSLFIRHRPERFRQATLAADAALRAPGVSLDVDTQDDLDALRRFIMALPPSEGPFWSADAIAPLARGLHTPPQGTSMDIASDDYHDFFIRDGKLIGEFEQMYRKSRHAPWHQDEACDKWFNKVSAALVGHALDDPSVRTVFEVGSGLGYFLSQFAGEGRTLTGTDVSATAVEKARALFPGISFEVDDIRFEGRRGPYDLCLMQAVCWCIFPHMDDVVRNVTATVRPGGYLFLGECFQPLDGPFAGKDVIPTPDALIGHFSHAFDTVADVRVTRGEMGGGPIIYWLGRRRG”, with “not soluble”; and “MSEQLNADRPKTRRKEPAGRGSASEQKILAAAKELFLADRYDGVNLERIAARAGVSRQTVYNRFGSKETVFREMVRHHWSAFAGPGRDIAECGPDASAEEVLRGFAQSLQRFATETDQIRFAQLVVTESARLPWIADEFYRLGKGPVVVTFADCLDSLVRRGLLRCPDTHLAARQFTGLVQEFLVWPRVMAFEEEVAGQAPPEVVIEEAVLTFLARYAPAADGPGQSV”, with “not soluble”.
